The record followed here is US7259254B2, “Mutants and assay system to identify USP/RXR ligands” (University of Kentucky Research Foundation, priority 2002, dated 2007).

Residue numbers refer to the chain shown, from its start. Names may count otherwise. “Also recorded” adds a separate entry of the source.

First the molecules themselves.
T1: His-tagged wild-type dUSP (Drosophila melanogaster, UniProt P20153)
T1 construct: His tag; made in house; host or cells: bacteria (pET32EK vector)
T1 sequence (P20153 1-508): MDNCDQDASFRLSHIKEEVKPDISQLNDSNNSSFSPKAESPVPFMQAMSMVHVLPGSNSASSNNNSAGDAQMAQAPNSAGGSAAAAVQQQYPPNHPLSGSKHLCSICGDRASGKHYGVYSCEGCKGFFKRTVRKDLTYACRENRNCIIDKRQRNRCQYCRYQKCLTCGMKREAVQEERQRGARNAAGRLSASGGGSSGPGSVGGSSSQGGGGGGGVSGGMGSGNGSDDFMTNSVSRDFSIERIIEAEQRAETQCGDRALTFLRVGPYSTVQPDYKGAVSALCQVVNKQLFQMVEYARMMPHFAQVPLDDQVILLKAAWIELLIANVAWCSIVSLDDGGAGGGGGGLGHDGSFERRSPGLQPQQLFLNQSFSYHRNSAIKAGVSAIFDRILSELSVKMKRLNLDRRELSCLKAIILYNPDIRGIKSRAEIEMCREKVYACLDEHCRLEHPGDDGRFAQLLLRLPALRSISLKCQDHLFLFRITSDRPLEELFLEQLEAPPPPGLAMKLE

B1: C472A/H475L: dUSP ligand-binding pocket double mutant, alanine at 472 and leucine at 475 (protein)
chain: T1 sequence (P20153 1-508) with C472A, H475L
B2: wild-type dUSP: wild type Drosophila melanogaster Ultraspiracle receptor, SEQ ID NO: 2 (protein)
chain: T1 sequence (P20153 1-508)
modifications: Drosophila melanogaster
B3: W318F: USP mutant, phenylalanine at position 318 (protein)
chain: T1 sequence (P20153 1-508) with W318F
B4: P498W/P499W/W318F: USP mutant, tryptophan at 498 and 499, phenylalanine at 318 (protein)
chain: T1 sequence (P20153 1-508) with W318F, P498W, P499W
B5: P498W/P499W/W318F/W328F: USP mutant, tryptophan at 498 and 499, phenylalanine at 318 and 328 (protein)
chain: T1 sequence (P20153 1-508) with W318F, W328F, P498W, P499W
B6: W318F/W328F: USP mutant, phenylalanine at positions 318 and 328 (protein)
chain: T1 sequence (P20153 1-508) with W318F, W328F
B7: W328F: USP mutant, phenylalanine at position 328 (protein)
chain: T1 sequence (P20153 1-508) with W328F
B8: P498W/P499W: USP mutant, two prolines at end of α-helix 12 replaced with tryptophan (protein)
chain: T1 sequence (P20153 1-508) with P498W, P499W
B9: Q288A: dUSP mutant, Gln288 mutated to alanine (protein)
chain: T1 sequence (P20153 1-508) with Q288A

One assay addresses T1, His-tagged wild-type dUSP. The assay is described as follows: Intrinsic tryptophan fluorescence ligand-binding assay, wild-type dUSP. To be noted: excitation 290 nm, emission 340 nm; 0.5 μm receptor. How it is done:
The homodimer-enriched fraction of bacterial recombinant His-dUSP fusion protein was purified by nickel resin selection, elution with imidazole, centrifugal concentration, and then gel permeation chromatography (Superdex 200) with procedures and chemical sources exactly as already described previously Jones et al. (2000) Insect Biochem. Mol. Biol. 30, 671-679. The homodimer-enriched fraction of the purified His-USP fusion protein was raised to 2 ml of NaCl and a final concentration of 0.5 μm. For a fluorescence-based ligand-binding assay based on intrinsic tryptophan fluorescence Jones et al. (2001) Insect Biochem. Mol. Biol. 32, 33-49; Jones et al (1998) Biochem. J. 335, 79-84; 79-84; Jones et al. (2000) Biochem. J. 346, 233-240; Jones et al (1997) Proc. Natl. Acad. Sci. USA 94, 13499-13503, ligand or ethanol carrier was added and the receptor preparation excited at 290 nm and monitored for emission at 340 nm, until the signal from the receptor had stabilized. Fluorescence was measured three times for each sample, with standard deviation typically smaller than the graphical plotted datum point. Each fluorescence experiment was replicated on three or more independent occasions, each time with similar results.
The ability of the wild-type dUSP and dominant negative, ligand-binding pocket mutant dUSP to bind methyl epoxyfarnesoate was tested.
Consider `CC(C)=CCCC(C)=CCCC(C)=CCO` [farnesol], for which the “effect on receptor intrinsic fluorescence (ligand binding), wild-type dUSP” value was “do not have that effect”.

The test system of a further assay is DR12 motif. The assay is described as follows: Electrophoretic mobility shift assay of recombinant dUSP on DR12 probe. It is filed as binding. To be noted: 500 nm His-tagged receptor. The source says: Nuclear extracts were isolated from Sf9 cells as previously described Jones et al. (2001) Insect Biochem. Mol. Biol. 32, 33-49; Jones et al (1998) Biochem. J. 335, 79-84; 79-84; Jones et al. (2000) Biochem. J. 346, 233-240. For the DR12 probe, the double stranded DR12 oligonucleotide (sequence as shown above) was 5′ end-labelled with ^32P by T4 polynucleotide kinase (New England Biolabs Inc.), and then purified from a 20% native polyacrylamide gel. The same double stranded DR12 oligonucleotide was used in 100-fold excess as a self competitor. For the 4DR12Core probe, the 4DR12Core sequence was liberated from the vector as a 148-bp ClaI/HindIII fragment, and was 5′ end-labelled with ^32P and purified. The same, unlabelled fragment was used at 100-fold excess as a self competitor. As a negative control for specificity in gel shifts, the 36 bp BglII/KpnI polylinker region fragment of the pGL3 vector was liberated and recovered from low melting point agarose gels and used as a 100 nonself competitor (sequence: […], SEQ ID NO: 17). […]
In addition, both receptor preparations bound to the probe similarly in part as monomer and in part as homodimer. […] Thus, any difference detected in ligand binding of the two receptors is most reasonably inferred as arising from differences in the architecture inside the cavity of the ligand-binding pocket due to the C472A/H475L point mutations.
Take B1: the “binding to DR12 motif in gel shift” value is reported as “similarly bound to a DR12 motif”.
With B2, the “binding to DR12 motif in gel shift” value is listed as “similarly bound to a DR12 motif”.

The next assay has as its system 4DR12Core reporter promoter in Sf9 cells (endogenous USP). Put plainly: Dominant negative activity of transfected dUSP mutants on methyl epoxyfarnesoate activation of 4DR12Core reporter in Sf9 cells. It is filed as cell-based, Spodoptera frugiperda. To be noted: Table 1, mutants envisioned. The source says: In another embodiment, mutant nuclear hormone receptors disclosed herein comprise amino acid substitutions that render the mutant to act as a “dominant negative.” Dominant negative proteins exploit protein-protein interactions, i.e., the interactions between a mutated protein produced by a transgene and the related native protein inside the cell. The mutant protein forms a dimer with an integral part of a wild type endogenous protein molecule. The mutant protein interacts with a whole range of native compatible gene products. Preferably, the mutant homodimerizes or heterodimerizes with an endogenous wild type partner to form a complex following ligand or independent of ligand binding. Preferably, as opposed to a complex of wild type monomers, a complex of a mutant and its endogenous wild type partner will be incapable of initiating transcription at a hormone receptor response reporter gene. Assays for determining dominant negative activity may be found in Examples 6 and 7 as well as FIG. 4.
Spodoptera frugiperda cell line, Sf9, was maintained and transfected as described previously Jones et al (1998) Biochem. J. 335, 79-84; Jones et al. (2000) Biochem. J. 346, 233-240. As an internal control to compare activities of different constructs, 0.3 μg of a constituitive heat-shock promoter-driven β-galactosidase gene was cotransfected. To study the role of USP in activation of the nuclear hormone receptor response element fused to core promoter in methyl epoxyfarnesoate-treated cells, cloned D. melangaster USP (dUSP) cDNA and its derivatives containing mutations in the ligand-binding pocket were cotransfected with the reporter and internal control plasmids. […] After 48 h of the treatment, the cells were harvested and the activity of the luciferase reporter was measured using a luciferase assay kit (Promega) in a multipurpose scintillation counter (Beckman, Fullerton, Calif.). β-Galactosidase activity was measured using chlorophenol red-[…] monosodium (CPRG; Roche Molecular Biochemicals) as a colorimetric substrate.
His-tagged dUSP dominant negative double mutant Cys472Ala/His475Leu (C472A/H475L) was over expressed in methyl epoxyfarnesoate-treated Sf9 cells that were cotransfected with the 4DR12Core reporter plasmid.
Under the model that overexpression of the C472A/H475L double mutant competed with endogenous USP in the pathways for transduction of the exogenous methyl epoxyfarnesoate signal, the level of effect of the double mutant ought to be dependent on its dose. […] This background of the blocked activation pathway was used to test whether activation by methyl epoxyfarnesoate treatment was actually dependent on the presence of wild-type USP. […] Again, over the range of the monotonic restoration of methyl epoxyfarnesoate-activated transcription, there was no effect of the transfected wild-type dUSP on the basal level of transcription in EtOH-treated controls.
For the molecule B3, the “Dominant Negative Activity” value was “Weak Activity”.
Consider B4, for which the “Dominant Negative Activity” value is “Weak Activity”.
B5: the “Dominant Negative Activity” value was “Weak Activity”.
In the case of B6, the “Dominant Negative Activity” value was “Weak Activity”.

The assay is the same for the next values; noted with them: receptor overexpressed in Sf9 cells, 75 μm methyl epoxyfarnesoate.
Turning to B1, the “dominant negative effect on methyl epoxyfarnesoate-induced activation of 4DR12Core promoter” value (“dominant negative effect” below) was “distinct suppression; also recorded: progressive suppression”.
As to B7, the “dominant negative effect” value is listed as “not a dominant negative”.
For the molecule B8, the “dominant negative effect” value was “not a dominant negative”.
With B3, the “dominant negative effect” value is “weak dominant negative”.
B9: the “dominant negative effect” value is “acted as a dominant negative suppressor”.
